# B1: CheW (protein)
# chain: MTGMTNVTKLASEPSGQEFLVFTLGDEEYGIDILKVQEIRGYDQVTRIANTPAFIKGVTNLRGVIVPIVDLRIKFSQVDVDYNDNTVVIVLNLGQRVVGIVVDGVSDVLSLTAEQIRPAPEFAVTLSTEYLTGLGALGDRMLILVNIEKLLNSEEMALLDSAASEVA
# Molecular target: Tsr (Escherichia coli, UniProt P02942)
# Sequence (P02942 whole entry): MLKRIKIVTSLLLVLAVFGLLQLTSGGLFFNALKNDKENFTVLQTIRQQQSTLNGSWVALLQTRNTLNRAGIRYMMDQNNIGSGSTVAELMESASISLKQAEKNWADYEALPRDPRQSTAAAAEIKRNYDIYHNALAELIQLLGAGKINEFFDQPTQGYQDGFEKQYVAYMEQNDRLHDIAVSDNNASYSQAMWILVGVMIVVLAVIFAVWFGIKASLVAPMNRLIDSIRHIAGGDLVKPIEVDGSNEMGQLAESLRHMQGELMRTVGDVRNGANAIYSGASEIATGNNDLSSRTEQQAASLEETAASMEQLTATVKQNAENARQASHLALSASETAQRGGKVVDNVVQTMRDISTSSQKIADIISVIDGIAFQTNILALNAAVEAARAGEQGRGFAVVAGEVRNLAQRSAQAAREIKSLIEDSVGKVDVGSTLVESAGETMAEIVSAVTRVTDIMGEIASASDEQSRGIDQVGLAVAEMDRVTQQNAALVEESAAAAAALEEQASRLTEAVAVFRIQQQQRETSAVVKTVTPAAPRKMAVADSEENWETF
binder,measurement,value
B1,Kd,~10 µM

# — paper PMC1079850 (2005)
